Test [1] deals with T1, Mouse Blade 1-2.
T1 construct: human/mouse chimera on transfected HEK293 cells; also called AA 25-162
T1 MET ECD-SV5-GPI fusion: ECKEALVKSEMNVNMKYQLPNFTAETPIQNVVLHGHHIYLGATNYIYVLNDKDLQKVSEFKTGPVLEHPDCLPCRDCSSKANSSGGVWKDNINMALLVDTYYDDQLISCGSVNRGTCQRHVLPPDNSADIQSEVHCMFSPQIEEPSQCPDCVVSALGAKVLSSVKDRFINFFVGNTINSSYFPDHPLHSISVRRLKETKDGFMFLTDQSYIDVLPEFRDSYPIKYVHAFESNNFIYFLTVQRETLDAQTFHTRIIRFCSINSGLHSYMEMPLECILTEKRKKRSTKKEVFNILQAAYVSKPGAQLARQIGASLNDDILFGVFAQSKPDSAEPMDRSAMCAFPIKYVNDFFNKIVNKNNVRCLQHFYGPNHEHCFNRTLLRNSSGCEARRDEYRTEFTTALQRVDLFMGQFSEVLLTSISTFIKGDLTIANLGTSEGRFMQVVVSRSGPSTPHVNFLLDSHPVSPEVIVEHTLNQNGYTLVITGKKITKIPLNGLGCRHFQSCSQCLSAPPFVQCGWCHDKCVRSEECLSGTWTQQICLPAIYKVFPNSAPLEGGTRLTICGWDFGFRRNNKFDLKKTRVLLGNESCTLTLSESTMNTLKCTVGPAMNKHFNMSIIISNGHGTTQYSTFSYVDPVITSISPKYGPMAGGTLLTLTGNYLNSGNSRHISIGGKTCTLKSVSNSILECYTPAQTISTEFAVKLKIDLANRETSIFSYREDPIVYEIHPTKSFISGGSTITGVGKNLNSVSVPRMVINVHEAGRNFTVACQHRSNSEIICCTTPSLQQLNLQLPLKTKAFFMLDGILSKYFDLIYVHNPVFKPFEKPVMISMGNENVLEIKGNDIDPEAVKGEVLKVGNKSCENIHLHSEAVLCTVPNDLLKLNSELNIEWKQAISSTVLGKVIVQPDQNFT
Kind of test: flow cytometry on transfected HEK293 cells.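 Also: antibodies applied at 50 µg/ml, binding called specific when fluorescence exceeds the mean signal on a negative control chicken or mouse MET construct plus four SD.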
Method: (§1) Cut-off values defined as the average fluorescence signal of all antibodies tested at 50 μg/ml to the negative control chicken or mouse MET construct+four standard deviations were employed to discriminate background binding from specific binding for the domain exchange or blade exchange constructs.

For test [2], the target named is T2, Mouse Blade 1-5.
T2 construct: human/mouse chimera on transfected HEK293 cells; also called AA 25-430
T2 MET ECD-SV5-GPI fusion: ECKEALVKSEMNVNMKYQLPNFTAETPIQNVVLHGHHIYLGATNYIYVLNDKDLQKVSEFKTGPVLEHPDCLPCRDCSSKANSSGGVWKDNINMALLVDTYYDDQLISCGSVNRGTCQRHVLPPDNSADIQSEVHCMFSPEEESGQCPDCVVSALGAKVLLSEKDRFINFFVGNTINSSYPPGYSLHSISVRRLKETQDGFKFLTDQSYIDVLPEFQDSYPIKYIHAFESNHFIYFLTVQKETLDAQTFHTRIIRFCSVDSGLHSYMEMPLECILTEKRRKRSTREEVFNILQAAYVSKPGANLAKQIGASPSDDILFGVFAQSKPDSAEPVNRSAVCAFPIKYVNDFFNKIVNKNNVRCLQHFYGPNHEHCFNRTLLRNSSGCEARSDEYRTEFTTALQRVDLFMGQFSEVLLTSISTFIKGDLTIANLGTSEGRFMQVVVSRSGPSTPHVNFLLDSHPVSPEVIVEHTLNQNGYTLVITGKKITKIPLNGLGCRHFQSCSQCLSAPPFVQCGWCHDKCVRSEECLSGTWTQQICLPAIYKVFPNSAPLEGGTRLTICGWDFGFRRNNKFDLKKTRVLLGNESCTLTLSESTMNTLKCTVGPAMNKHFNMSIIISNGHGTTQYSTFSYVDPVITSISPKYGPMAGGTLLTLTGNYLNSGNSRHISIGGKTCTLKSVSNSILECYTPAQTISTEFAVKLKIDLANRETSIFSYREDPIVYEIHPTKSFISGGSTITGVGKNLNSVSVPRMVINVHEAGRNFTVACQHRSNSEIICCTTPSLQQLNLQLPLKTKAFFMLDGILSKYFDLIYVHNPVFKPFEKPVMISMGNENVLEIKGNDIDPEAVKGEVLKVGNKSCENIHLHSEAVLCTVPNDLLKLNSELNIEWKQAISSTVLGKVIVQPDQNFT
The test can be described thus: flow cytometry on transfected HEK293 cells.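 Also: antibodies applied at 50 µg/ml, binding called specific when fluorescence exceeds the mean signal on a negative control chicken or mouse MET construct plus four SD.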 Background: A flow cytometer gives signals particle by particle.
Method: as §1

The target in test [3] is T3, His tagged human MET ECD (Sinobiological) (human, UniProt P08581 25-932).
T3 construct: Bought monovalent antigen; also called human MET antigen; not shown: His tag
The test can be described thus: SPR (Bio-Rad XPR-36); antibody captured on anti-human IgG Fc surface, MET ECD 25 to 1.56 nM, 1:1 Langmuir fit.

Test [4] deals with T3, His tagged human MET ECD …. The test can be described thus: BLI (Octet QK384); antibody captured on anti-human Fc sensors, monovalent MET ECD in solution, 1:1 Langmuir fit.
Method: His tagged human or cynomolgus MET ECD antigens were purchased from Sinobiological, China. […] Measurements were conducted with a plate rotation speed of 1000 rpm and sensors were regenerated and reused by brief 5 second alternations between exposure to 10 mM Glycine:HCl buffer (pH 1.5) or PBS buffer containing 1% BSA and 0.001% Tween 20 three times. For the Surface Plasmon Resonance experiments conducted on the Bio-Rad XPR-36 instrument, anti-MET antibodies were adjusted to a concentration of 0.25-0.5 μg/ml and captured on anti-human IgG Fc surfaces generated by immobilizing a monoclonal anti-human Fc antibody (Biacore, Denmark). […] The recorded binding responses were fitted to a simple Langmuir 1:1 binding model for calculation of the on-rate (kon or ka), off-rate (koff or kd) and affinity (KD) constants using double referencing.

B1: humanized antibody 9338 (antibody, human IgG1, kappa, V domains shown)
VH: QVQLVQSGAEVKKPGSSVKVSCKASGYTFTSYWMHWVRQAPGQGLEWMGYINPSSGHIENNQKFKDRVTITADKSTSTAYMELSSLRSEDTAVYYCARGRFAYWGQGTLVTVSS
VL: EIVLTQSPATLSLSPGERATLSCSASSSVSSGYLYWYQQKPGQAPRLLIYSTSNLASGIPARFSGSGSGTDFTLTISSLEPEDFAVYYCHQWSSYPFTFGSGTKLEIKR
notes: also called Hu9338; hu9338
For B1, the binding result in test [1] and in test [2] was “no binding (tested: 50 µg/ml)” each time.

B2: humanized antibody 9006 (antibody, human IgG1, kappa, V domains shown)
VH: QVQLVQSGSELKKPGASVKVSCKASGYTFTNFRMNWVKQAPGQGLKWMGWINTYTGEPTYVDDLKGRFVFSLDTSVSTAYLQISSLKAEDTAVYYCARKGIARAMDYWGQGTTVTVSS
VL: DIVMTQSPDSLAVSLGERATINCKSSQSLLDSGNQKNYLAWYQQKPGQPPKLLIFGASTRESGVPDRFSGSGSGTDFTLTISSLQAEDVAVYYCQNDHSYPYTFGQGTKLEIKR
notes: also called Hu9006; hu9006
By Kd is commonly meant the concentration at which binding is half-saturated. The low end stands for tighter binding, the high end for weaker binding. As a reminder, the koff is the rate constant with which the complex falls apart. A low value points to a long-lived complex. One may read the kon as the rate constant with which the complex forms. The low end stands for slower complex formation, the high end for faster complex formation. As for B2, in test [2], the binding result is “no binding (tested: 50 µg/ml)”. In test [3], this molecule displayed a dissociation constant (Kd) of 0.055 nM, a koff of 1.1e-05 s⁻¹ and a kon of 190000 M⁻¹ s⁻¹. In test [4], this molecule showed a Kd of 1.2 nM, a dissociation rate constant (koff) of 7.6e-05 s⁻¹ and a kon of 62000 M⁻¹ s⁻¹.

(Values after patent publication US20180327500A1 (SYMPHOGEN A S, published 2018).)
